Read-outs that look alike come from different tables or passages of the source.
T1: Recombinant hIL-36R protein (Acrobio, Cat #IL2-H52H6) (human, UniProt Q9HB29 20-335)
T1 construct: Bought soluble protein; also called recombinant human IL-36R protein
T1 sequence: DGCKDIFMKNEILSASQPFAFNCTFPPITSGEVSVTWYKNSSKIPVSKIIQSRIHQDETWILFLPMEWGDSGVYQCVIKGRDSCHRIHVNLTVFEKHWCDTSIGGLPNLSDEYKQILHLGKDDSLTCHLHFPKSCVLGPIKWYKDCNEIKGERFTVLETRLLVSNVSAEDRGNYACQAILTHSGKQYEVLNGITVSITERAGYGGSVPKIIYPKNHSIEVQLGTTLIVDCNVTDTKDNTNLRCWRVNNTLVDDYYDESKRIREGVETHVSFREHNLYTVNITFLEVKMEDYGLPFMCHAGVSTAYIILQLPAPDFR

T2: membrane hIL-36R (human, UniProt Q9HB29 20-575)
T2 sequence: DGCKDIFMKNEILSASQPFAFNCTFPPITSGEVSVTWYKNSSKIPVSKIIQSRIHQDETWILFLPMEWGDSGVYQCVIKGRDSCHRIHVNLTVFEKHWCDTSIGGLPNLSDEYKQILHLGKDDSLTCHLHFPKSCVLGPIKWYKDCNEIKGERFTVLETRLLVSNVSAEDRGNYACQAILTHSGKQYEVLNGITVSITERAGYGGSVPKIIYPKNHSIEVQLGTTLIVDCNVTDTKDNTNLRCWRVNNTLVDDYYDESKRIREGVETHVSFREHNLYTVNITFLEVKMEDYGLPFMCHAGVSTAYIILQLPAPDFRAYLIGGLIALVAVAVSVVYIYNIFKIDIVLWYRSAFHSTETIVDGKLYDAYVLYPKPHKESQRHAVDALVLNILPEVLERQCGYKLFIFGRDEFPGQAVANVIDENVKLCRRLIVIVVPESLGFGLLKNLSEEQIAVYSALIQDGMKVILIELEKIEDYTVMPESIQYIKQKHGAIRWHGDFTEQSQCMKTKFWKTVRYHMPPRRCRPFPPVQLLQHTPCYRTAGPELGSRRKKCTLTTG


What was measured:
[1] = target: T1, Recombinant hIL-36R protein (Acrobio, …); assay: BLI (Gator), antibody on Protein A sensor, hIL-36R analyte
Procedure: (§1) Antibodies was immobilized onto Protein A biosensor after balance. A baseline was detected for 60 seconds. And then antibody-antigen association was detected for 180 seconds to get the Kon factor data. Followed by dissociation in kinetic buffer for 180 seconds to get the Koff factor data. The regeneration of biosensors was in buffer 10 mM glycine, pH2.0. All the kinetics data were collected at 30° C. Data were acquired with Gator Bioanalysis System.

[2] = target: T1, Recombinant hIL-36R protein (Acrobio, …); assay: BLI (Gator), antibody on Protein A sensor, hIL-36R analyte; stands under the head koff(1/Ms), read as kon from KD = koff/kon
Procedure: as §1

[3] = target: T1, Recombinant hIL-36R protein (Acrobio, …); assay: BLI (Gator), antibody on Protein A sensor, hIL-36R analyte; stands under the head kon(1/s), read as koff from KD = koff/kon
Procedure: as §1

[4] = target: T2, membrane hIL-36R; assay: cell-based or functional assay
[5] = target: T1, Recombinant hIL-36R protein (Acrobio, …); assay: BLI as in Example 2, antibody on Protein A sensor, hIL-36R analyte
Procedure: as §1

[6] = target: T2, membrane hIL-36R; assay: cell-based or functional assay; remark: listed apart in the source
[7] = target: T1, Recombinant hIL-36R protein (Acrobio, …); assay: BLI (Gator)
Procedure: as §1

| Binder | Kd [1] | kon [2] | koff [3] | Kd [7] | kon [7] | other results |
| --- | --- | --- | --- | --- | --- | --- |
| 10F6 (antibody, V domains shown, Mouse variable regions, recombinantly expressed) VH: QVQLQQSGAELVKPGASVRLSCKASGYTFTEFTIHWVKQRSGQGLEWIGWFYPGSDFIKYNEKFKDKATLTADKSSNTVYMELLRLTSEDSAVYFCARHEDRLSDYSYEWYFDVWGAGTAVTVSS VL: DIQMTQSPASLSASVGETVTITCRASENIDSYLAWYQQKQGKSPQLLVYGATLLADGVPSRFSGSGSGTQYSLKINSLQSEDVAEYFCQHYYSIPLTFGAGTKLELK | 0.901 nM | 152000 M⁻¹ s⁻¹ | 0.000137 s⁻¹ | – | – | – |
| 1J3 (antibody, V domains shown, Mouse variable regions, recombinantly expressed) VH: QVQLEQSGGDLVKPGGSLKLSCAASGFTFSSYGMSWVRQTPDKRLEWVATISSYGSYTSYPDTVKGRFTISRDNAKNTLYLQMSSLKSEDTAMYYCARPDYYVSTGFDYWGQGTTLTVSS VL: DIVITQSTATLSVTPGDRVSLSCRASQSISDYLHWYQQKSHESPRLLIKYASQSISGIPSRFSGSGSGSDFTLSINSVEPEDVGVYYCQNGHSFPFTFGSGTKLEIK | 0.597 nM | 73200 M⁻¹ s⁻¹ | 4.37e-05 s⁻¹ | – | – | – |
| 5F7-hu-2 (antibody, V domains shown, Humanized 5F7; also called humanized 5F7) VH: QVQLQESGGGLVKPGGSLRLSCAASGFAFTDYYMNWIRQAPGKGLEWVSLIRNKAAGYTIYYADSVKGRFTISRDNAKSSLYLQMNSLRAEDTAVYYCVRDMTIYDGYYVDYALDYWGQGTLVTVSS VL: EIVMTQSPATLSVSPGERATLSCRASQNINIWLSWYQQKPGQAPRLFIYKASNLHTGVPARFSGSGSGTEFTLTISSLQSEDFAVYYCLQSQSYPLTFGQGTKLEIK | – | – | – | – | – | IC50, IL-36R reporter assay: inhibition of ligand induced luminescence in Jurkat-IL36R-IL1Racp-NFkB-luc cells [4]: 0.086 µg/mL; Kd [5]: 6.86 nM; koff [5]: 0.000233 s⁻¹; kon [5]: 34000 M⁻¹ s⁻¹ |
| 9C12 (antibody, V domains shown, Mouse variable regions, recombinantly expressed) VH: EVQLQQSGPELVKPGASVKMSCKASGYTFTDYHMNWVKRSPGKSLEWIGRINPDYGDARYDQKFKGKATLTVDKSLSTAYMQLNRLTYEDSAVYYCARDGYYVFDYWGQGSTLTVSS VL: DIVMTQAAFSNPVSLGTSASISCRSSKSLLHSDGITYLSWYLQRPGQSPQLLIYRMSNLVSGVPDRFSGSGSGTDFTLRISRVEAEDVGVYYCAQTLEFPLTFGAGTKLELK | 10 nM | 79400 M⁻¹ s⁻¹ | 0.000795 s⁻¹ | – | – | – |
| 1A21 (antibody, V domains shown, Mouse variable regions, recombinantly expressed) VH: EVQLQQSGPELVKPGDSVKISCKASGYSFTGYFMNWVMQSHGKSLEWIGRINPYNGDTFYNQKFKGKATLTVDKSSSTAHMELRSLTSEDSAVYYCAGLGHWYFDVWGTGTTVTVSS VL: DIVMTQSTLSLPVSLGDQASISCRSSQSIVHSNGNTYLEWYLQKPGQSPKLLIYKVSNRFSGVPDRFSGSGSGTDFTLKISRVEAEDLGVYYCFQGSHVPWTFGGGTKLEIK | 0.536 nM | 74900 M⁻¹ s⁻¹ | 4.01e-05 s⁻¹ | – | – | – |
| 5F7-2a6 (antibody, human IgG4 S228P, kappa, V domains shown) VH: EVQLVESGGGLVKPGGSLRLSCAASGFDFTDYYMNWVRQAPGKGLEWVALIRNKAAGYTIYYSAPVKGRFTISRDDSKSTLYLQMNSLKTEDTAVYYCVRDMTIYDGYYVDYALDYWGQGTLVTVSS VL: DIVMTQSPSSVSASVGDRVTITCRASRNINIWLSWYQQKPGKAPKLFIYKASNLHTGVPSRFSGSGSGTDFTLTISSLQPEDFATYYCLQSQSYPLTFGQGTKLEIKR | – | – | – | < 0.1 nM | 39800 M⁻¹ s⁻¹ | IC50, IL-36R reporter assay: inhibition of ligand induced luminescence in Jurkat-IL36R-IL1Racp-NFkB-luc cells [6]: 0.0228 µg/mL |
| 5F7-hu-5 (antibody, V domains shown, Humanized 5F7; also called humanized 5F7) VH: EVQLVESGGGLVKPGGSLRLSCAASGFAFTDYYMNWVRQAPGKGLEWVALIRNKAAGYTIYYSAPVKGRFTISRDDSKSTLYLQMNSLKTEDTAVYYCVRDMTIYDGYYVDYALDYWGQGTLVTVSS VL: DIVMTQSPSSVSASVGDRVTITCRASQNINIWLSWYQQKPGKAPKLFIYKASNLHTGVPSRFSGSGSGTDFTLTISSLQPEDFATYYCLQSQSYPLTFGQGTKLEIK | – | – | – | – | – | IC50, IL-36R reporter assay: inhibition of ligand induced luminescence in Jurkat-IL36R-IL1Racp-NFkB-luc cells [4]: 0.0781 µg/mL; Kd [5]: 6.28 nM; koff [5]: 0.000294 s⁻¹; kon [5]: 46700 M⁻¹ s⁻¹ |
| 5F7-2d3 (antibody, human IgG4 S228P, kappa, V domains shown) VH: EVQLVESGGGLVKPGGSLRLSCAASGFNFTDYYMNWVRQAPGKGLEWVALIRNKAAGYTIYYSAPVKGRFTISRDDSKSTLYLQMNSLKTEDTAVYYCVRDMTIYDGYYVDYALDYWGQGTLVTVSS VL: DIVMTQSPSSVSASVGDRVTITCRASRNINIWLSWYQQKPGKAPKLFIYKASNLHTGVPSRFSGSGSGTDFTLTISSLQPEDFATYYCLQSQSYPLTFGQGTKLEIKR | – | – | – | 2.46 nM | 35900 M⁻¹ s⁻¹ | koff [7]: 8.83e-05 s⁻¹ |
| 5F7-2g10 (antibody, human IgG4 S228P, kappa, V domains shown) VH: EVQLVESGGGLVKPGGSLRLSCAASGFAFTDYYLSWVRQAPGKGLEWVALIRNKAAGYTIYYSAPVKGRFTISRDDSKSTLYLQMNSLKTEDTAVYYCVRDMTIYDGYYVDYALDYWGQGTLVTVSS VL: DIVMTQSPSSVSASVGDRVTITCRASRNINIWLSWYQQKPGKAPKLFIYKASNLHTGVPSRFSGSGSGTDFTLTISSLQPEDFATYYCLQSQSYPLTFGQGTKLEIKR | – | – | – | 0.638 nM | 28900 M⁻¹ s⁻¹ | koff [7]: 1.84e-05 s⁻¹ |
| 5F7-2c4 (antibody, human IgG4 S228P, kappa, V domains shown) VH: EVQLVESGGGLVKPGGSLRLSCAASGFAFTDYYLRWVRQAPGKGLEWVALIRNKAAGYTIYYSAPVKGRFTISRDDSKSTLYLQMNSLKTEDTAVYYCVRDMTIYDGYYVDYALDYWGQGTLVTVSS VL: DIVMTQSPSSVSASVGDRVTITCRASRNINIWLSWYQQKPGKAPKLFIYKASNLHTGVPSRFSGSGSGTDFTLTISSLQPEDFATYYCLQSQSYPLTFGQGTKLEIKR | – | – | – | 2060 nM | 203 M⁻¹ s⁻¹ | koff [7]: 0.000418 s⁻¹ |
| 5F7-2h1 (antibody, human IgG4 S228P, kappa, V domains shown) VH: EVQLVESGGGLVKPGGSLRLSCAASGYAFTDYYMNWVRQAPGKGLEWVALIRNKAAGYTIYYSAPVKGRFTISRDDSKSTLYLQMNSLKTEDTAVYYCVRDMTIYDGYYVDYALDYWGQGTLVTVSS VL: DIVMTQSPSSVSASVGDRVTITCRASRNINIWLSWYQQKPGKAPKLFIYKASNLHTGVPSRFSGSGSGTDFTLTISSLQPEDFATYYCLQSQSYPLTFGQGTKLEIKR | – | – | – | < 0.1 nM | 41000 M⁻¹ s⁻¹ | – |
| 5F7-2a1 (antibody, human IgG4 S228P, kappa, V domains shown) VH: EVQLVESGGGLVKPGGSLRLSCAASGFDFTDYYMHWVRQAPGKGLEWVALIRNKAAGYTIYYSAPVKGRFTISRDDSKSTLYLQMNSLKTEDTAVYYCVRDMTIYDGYYVDYALDYWGQGTLVTVSS VL: DIVMTQSPSSVSASVGDRVTITCRASRNINIWLSWYQQKPGKAPKLFIYKASNLHTGVPSRFSGSGSGTDFTLTISSLQPEDFATYYCLQSQSYPLTFGQGTKLEIKR | – | – | – | < 0.1 nM | 32500 M⁻¹ s⁻¹ | IC50, IL-36R reporter assay: inhibition of ligand induced luminescence in Jurkat-IL36R-IL1Racp-NFkB-luc cells [6]: 0.0195 µg/mL |
| 1C11 (antibody, V domains shown, Mouse variable regions, recombinantly expressed) VH: EVQVQQSGTELVKPGASVKLSCKASGYTFTNYWLHWVKQRPGQGLEWIGNINPSNGGTNYNEKFKTKATLTVDKSSSTAYMQLSSLTSEDSAVYYCARYSTGFAYWGQGTLVTVSA VL: DIVLTQTTASLAVSLGQRATISCRASESVDTYGASFMHWYQQKPGQPPKLLIYRASNLESGIPARFSGSGSRTDFTLTVNPVEADDVATYYCQQSNEDPRTFGGGTKLEIK | 13.7 nM | 63800 M⁻¹ s⁻¹ | 0.000872 s⁻¹ | – | – | – |
| 9H11 (antibody, V domains shown, Mouse variable regions, recombinantly expressed) VH: QVQLQQSGPELVKPGASVKISCKASGYAFSHSWMNWVKQRPGKGLEWIGWIHLGDGDTYYNGKFKGKATLTADKSSSTAYMQLSSLTSEDSAVYFCARSDGNYVPYAMDYWGQGTSVTVSS VL: DIVITQTTSSLSASLGDRVTISCRASQDISNYLSWYQQKPDGTVKLLIYYTSRLHSGVPSRFSGSGSGTDYSLTISSLEQEDIATYFCQQDSEHPWTFGGGTELDVR | 0.00631 nM | 91700 M⁻¹ s⁻¹ | 5.79e-07 s⁻¹ | – | – | – |
| 10D12 (antibody, V domains shown, Mouse variable regions, recombinantly expressed) VH: QVQLQQPGTELVKPGASVKLSCKASGYTFTRYWMHWVRQRPGQGLEWIGNINPNIGRANYNEKFKNKATLTVDKSSSTAYMQLSSLTSEDSAVYYCARPGETTDYWGQGTTLTVSS VL: not shown | 4.03 nM | 79800 M⁻¹ s⁻¹ | 0.000321 s⁻¹ | – | – | – |

— patent publication US20250002593A1 (INMAGENE PTE, published 2025)
